This note sets out measurements from patent US20190031764A1 (published 2019).

The chains are these.
B1: S75D variant of PD1B244 (antibody, V domains shown)
VH: QVQLVQSGAEVKKPGSSVKVSCKASGGTFSSYAISWVRQAPGQGLEWMGGIIPIFDTANYAQKFQGRVTITADEDTSTAYMELSSLRSEDTAVYYCARPGLAAAYDTGSLDYWGQGTLVTVSS
VL: EIVLTQSPATLSLSPGERATLSCRASQSVRSYLAWYQQKPGQAPRLLIYDASNRATGIPARFSGSGSGTDFTLTISSLEPEDFAVYYCQQRNYWPLTFGQGTKVEIK
B2: S88D variant of PD1B244 (antibody, V domains shown)
VH: QVQLVQSGAEVKKPGSSVKVSCKASGGTFSSYAISWVRQAPGQGLEWMGGIIPIFDTANYAQKFQGRVTITADESTSTAYMELSSLRDEDTAVYYCARPGLAAAYDTGSLDYWGQGTLVTVSS
VL: EIVLTQSPATLSLSPGERATLSCRASQSVRSYLAWYQQKPGQAPRLLIYDASNRATGIPARFSGSGSGTDFTLTISSLEPEDFAVYYCQQRNYWPLTFGQGTKVEIK
B3: S84D variant of PD1B244 (antibody, V domains shown)
VH: QVQLVQSGAEVKKPGSSVKVSCKASGGTFSSYAISWVRQAPGQGLEWMGGIIPIFDTANYAQKFQGRVTITADESTSTAYMELDSLRSEDTAVYYCARPGLAAAYDTGSLDYWGQGTLVTVSS
VL: EIVLTQSPATLSLSPGERATLSCRASQSVRSYLAWYQQKPGQAPRLLIYDASNRATGIPARFSGSGSGTDFTLTISSLEPEDFAVYYCQQRNYWPLTFGQGTKVEIK

The target of the assay is human PD1 antigen (human, UniProt Q15116 25-167). The assay can be described thus: SPR. On the technique in general: In SPR one partner is held on a chip, and binding of the other changes the refractive index at the surface.
human PD1 antigen, sequence (Q15116 25-167): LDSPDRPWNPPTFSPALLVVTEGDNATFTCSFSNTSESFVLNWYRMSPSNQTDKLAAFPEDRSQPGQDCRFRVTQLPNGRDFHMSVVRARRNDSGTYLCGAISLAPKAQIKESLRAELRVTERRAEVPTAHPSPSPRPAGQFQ
Turning to B1, the Kd (usually the equilibrium constant for the complex coming apart) is 1.38 nM.

In turn, B2 returned a Kd of 1.36 nM.

In turn, B3 had a dissociation constant (Kd) of 1.51 nM. The Kd values of the last two molecules are within 1.5-fold of each other.
